In this test the target is T1, L1-Fc (human L1-Fc protein comprising the ectodomain of L1) (human, UniProt P32004 20-1120).
T1 construct: extracellular domain; also called L1CAM; CD171; not shown: Fc part
Kind of test: SPR, BIAcore 3000, L1-Fc immobilised on CM5 chip, antibody injected. On the procedure: Affinity to L1 may be determined by methods known in the art, as for example by surface plasmon resonance. The binding analysis for L1-OV52.24 was performed using a BIAcore 3000 equipped with a CM5 sensor chip. Briefly, a BIAcore CM5 chip was activated with EDC/NHS and various levels of L1-Fc were captured onto the activated surface. The remaining active sites were blocked by ethanolamine/HCl. L1-OV52.24 was bound to the L1-Fc surface and allowed to dissociate over time. The association and dissociation phases for each injection over each density surface were subjected to kinetic analysis.
The binding analysis was performed using a BIAcore 3000 equipped with a CM5 sensor chip. Briefly, a BIAcore CM5 chip was activated with EDC/NHS and various levels of L1-Fc were captured onto the activated surface. The remaining active sites were blocked by ethanolamine/HCl. L1-mAb were bound to the L1-Fc surface and allowed to dissociate over time. The association and dissociation phases for each injection over each density surface were subjected to kinetic analysis.
Background: SPR reads the build-up and loss of mass on a sensor chip optically.

T1 sequence (P32004 20-1120): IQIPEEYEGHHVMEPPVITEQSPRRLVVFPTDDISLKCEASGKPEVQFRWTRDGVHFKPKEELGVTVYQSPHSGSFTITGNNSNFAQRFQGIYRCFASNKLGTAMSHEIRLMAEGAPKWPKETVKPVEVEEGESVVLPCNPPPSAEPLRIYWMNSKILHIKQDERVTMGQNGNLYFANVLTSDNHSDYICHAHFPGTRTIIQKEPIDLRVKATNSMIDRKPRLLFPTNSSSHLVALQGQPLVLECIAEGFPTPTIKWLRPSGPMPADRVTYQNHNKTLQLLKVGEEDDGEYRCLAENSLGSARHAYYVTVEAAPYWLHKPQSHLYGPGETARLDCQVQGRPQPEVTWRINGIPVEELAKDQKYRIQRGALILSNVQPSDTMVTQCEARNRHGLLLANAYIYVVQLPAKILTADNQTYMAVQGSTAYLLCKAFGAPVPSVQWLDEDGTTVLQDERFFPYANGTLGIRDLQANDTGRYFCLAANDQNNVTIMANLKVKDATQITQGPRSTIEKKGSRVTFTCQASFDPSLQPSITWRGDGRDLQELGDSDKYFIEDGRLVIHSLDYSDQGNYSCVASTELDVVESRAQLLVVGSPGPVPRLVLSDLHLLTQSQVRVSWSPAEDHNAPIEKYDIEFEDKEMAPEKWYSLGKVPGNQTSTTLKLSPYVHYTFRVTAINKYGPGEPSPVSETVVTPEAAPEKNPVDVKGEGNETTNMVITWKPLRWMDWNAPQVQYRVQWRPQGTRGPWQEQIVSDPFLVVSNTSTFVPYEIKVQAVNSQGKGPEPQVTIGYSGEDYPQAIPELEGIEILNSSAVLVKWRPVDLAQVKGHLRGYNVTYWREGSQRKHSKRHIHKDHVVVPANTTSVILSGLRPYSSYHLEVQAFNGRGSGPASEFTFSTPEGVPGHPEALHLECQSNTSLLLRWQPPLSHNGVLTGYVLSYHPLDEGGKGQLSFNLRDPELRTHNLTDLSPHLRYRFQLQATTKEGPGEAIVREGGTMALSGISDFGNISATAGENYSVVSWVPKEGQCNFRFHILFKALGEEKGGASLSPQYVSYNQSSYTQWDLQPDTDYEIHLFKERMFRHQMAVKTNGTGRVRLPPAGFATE

B1: monoclonal antibody L1-OV52.24 (antibody, IgG1, V domains shown)
VH: EVQLQQSGAELVRPGALVKLSCKASGFNIKDYYMQWVKQRPEQGLEWIGWIDPENGKTVFDPKFRGKASISADTSSNTAYLQLSSLTSEDTAVYYCARWNPLAFWGQGTLVTVSS
VL: DIVMTQSQKFMSTSVGDRVSVTCKASQNVGTNVAWYQQKPGHSPKALIYSTSYRYSGVPDRFTGSGSGTDFTLTIRNVQSEDLAEYFCQQYNTYPYTFGGGTKLEIK
notes: also called mAb L1-OV52.24; L1CAM mAb OV52.24
The term Kd denotes the concentration at which binding is half-saturated. Low readings indicate a tighter complex, high ones a looser complex. B1 yielded a Kd of 2.41 nM.
